B1: HDV Ribozyme (parent)
chain: GGCCGGCAUGGUCCCAGCCUCCUCGCUGGCGCCGGCUGGGCAACAUUCCGAGGGGACCGUCCCCUCGGUAAUGGCGAAUGGGACCCA

Variants of: B1
Assay: self-cleavage, relative activity (ratio to wild type); higher = more cleavage; co-transcriptional

Variant | self-cleavage
G68C C85U | 0.892
G68C G81U | 0.123
C66U U69C | 0.92
C66U U69A | 0.831
A70C A71C | 0.762
A70C A71G | 0.831
G68C G76A | 1.04
G67U | 0.999
G67C | 0.976
G67A | 0.967
A70G G73C | 0.356
U69G A70G | 0.767
U69G A70U | 0.95
G68A G81U | 0.124
U69C G81A | 0.323
G67A A78G | 0.604
G67A A78U | 0.234
G67A A78C | 0.0963
G67A A77G | 0.712
U69G U72C | 0.485
U69G G76U | 1.01
U69G | 0.981
U69A | 0.977
U69C | 1.02

Variant | self-cleavage
U69C A87G | 1.1
G67A U72C | 0.539
A70G C86U | 1.23
G68C A83C | 0.332
G68A U69C | 0.782
G67U C75A | 0.0426
U69A C85U | 0.831
U69G G81A | 0.469
G67C C86U | 0.979
G67C C86A | 0.972
U69G U79G | 0.895
U69G U79C | 0.326
U69A G74A | 0.511
U69A G74C | 0.297
U69G A78G | 0.569
U69G C85U | 0.811
U69C A78G | 0.831
G67C C84G | 0.499
G67C C84U | 0.523
U69A A83C | 0.499
U69A A83U | 0.427
G67A G76A | 0.975
U69A C84G | 0.578
G67C U72A | 0.682

Variant | self-cleavage
G67C U72C | 0.147
G67C A87G | 0.961
U69G C75A | 0.107
A70G G80C | 0.104
G67A G73C | 0.13
G67A G73U | 0.227
C66U U72A | 0.525
C66U U72C | 0.518
G68U U72C | 0.237
A70G A71U | 0.852
U69C C75U | 0.0573
A70G G74C | 0.107
U69C G82A | 0.246
G68U C85G | 1.07
G67A C84G | 0.369
G67A C84A | 0.831
G67A C84U | 0.658
A70C G82U | 0.166
A70C G81C | 0.201
A70G U79A | 0.77
A70G U79C | 0.365
U69G G80C | 0.219
G67U A70C | 0.987
G68U A70G | 0.95

Variant | self-cleavage
A70G C85A | 1.07
G68A A78U | 0.277
G68A A78C | 0.0733
G68C A78C | 0.237
A70G C75U | 0.136
A70G C75G | 0.219
U69A G80A | 0.434
U69A A70C | 0.745
G68U G81C | 0.223
G68A U79G | 0.584
U69G A71G | 1.16
G68C U72G | 0.356
G67A A83U | 0.359
G67U G73C | 0.437
U69G C86G | 0.692
U69G C86A | 0.917
G68C C84U | 0.796
G68U G76U | 1.09
U69C G73A | 0.653
G68U G82C | 0.215
U69A C75G | 0.138
U69A C75A | 0.119
G68C C75U | 0.272
G67U A78C | 0.223

Variant | self-cleavage
G67U A78G | 0.791
G67A G68C | 0.707
A70C C85A | 0.883
G68A G73A | 0.463
G68A G73C | 0.257
G68A G73U | 0.251
G67U U72C | 0.53
G67U G74U | 0.453
G68A C75G | 0.0875
U69G A77U | 0.375
G68C U79A | 0.705
U69A U79A | 0.665
G67A U79G | 0.807
G68C A71C | 0.554
U69A A87U | 0.913
U69C G80A | 0.305
G68U C84A | 0.816
G68U C84U | 0.511
U69A G81A | 0.425
G68C G80A | 0.421
A70C A77U | 0.237
A70G U72G | 0.582
G68A C86G | 1.07
G67C A83G | 0.597

Variant | self-cleavage
G68A G82A | 0.287
U69G A87U | 1.06
G67C A71G | 0.743
A70C G80U | 0.217
A70G G81C | 0.277
A70C A83U | 0.475
G68U U79A | 0.928
G68U U79G | 0.374
G67A A71G | 1.05
G67U G81U | 0.155
U69C C84A | 1.09
U69C C84G | 0.875
G68U C86G | 0.945
G67C G74A | 0.415
G67C G74U | 0.332
A70G A87G | 1.01
G68U A83U | 0.629
G68U A83G | 0.407
G67U A83G | 0.412
G68A C84U | 0.872
G68A C84G | 0.475
G68U A87C | 1.01
U69C A71U | 1.01
G68U G80C | 0.253

Variant | self-cleavage
G68A C85U | 0.95
U69A A77C | 0.199
U69A G82C | 0.554
G67U C85G | 0.831
G67U C85A | 0.831
C66U U79A | 0.869
C66U U79G | 0.453
G67C A77G | 0.508
G67C G76C | 1.09
G67U A87C | 0.925
A70G A83C | 0.344
A70C C84G | 0.323
G67C C85U | 0.92
G67A A70G | 0.712
A70G C84U | 0.743
G68C G74U | 0.394
G68A U72A | 0.396
G67A G74A | 0.403
G67A G74C | 0.132
G68C A77C | 0.185
U69C U79A | 0.684
G68A G76C | 0.88
G68A G76U | 1.14
